Assay results reported in patent US20200255869.

Biological target: purified HSA (Abcam, ab201876) (UniProt P02768)
Sequence of UniProt P02768 (P02768 whole entry, looked up): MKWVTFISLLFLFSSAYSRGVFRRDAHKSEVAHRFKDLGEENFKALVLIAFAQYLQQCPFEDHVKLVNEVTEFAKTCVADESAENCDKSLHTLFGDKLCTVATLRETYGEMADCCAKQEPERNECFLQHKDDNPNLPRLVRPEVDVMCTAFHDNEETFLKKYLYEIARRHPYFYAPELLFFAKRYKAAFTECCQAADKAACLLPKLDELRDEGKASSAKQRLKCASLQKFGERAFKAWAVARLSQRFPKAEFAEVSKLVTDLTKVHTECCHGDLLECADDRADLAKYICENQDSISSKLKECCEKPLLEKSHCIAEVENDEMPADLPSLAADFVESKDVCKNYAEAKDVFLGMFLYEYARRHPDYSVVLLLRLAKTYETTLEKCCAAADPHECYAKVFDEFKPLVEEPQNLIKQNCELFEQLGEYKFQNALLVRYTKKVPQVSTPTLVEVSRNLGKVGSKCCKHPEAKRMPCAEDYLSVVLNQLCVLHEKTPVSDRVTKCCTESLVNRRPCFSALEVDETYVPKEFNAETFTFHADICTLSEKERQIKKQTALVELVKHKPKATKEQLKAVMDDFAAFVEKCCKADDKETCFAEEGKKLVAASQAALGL

Substance: YscB protein of Talaromyces cellulolyticus strain S6-25
- degradation of purified HSA mixed with culture supernatant (30 C, 3 days), SDS-PAGE and Western blotting using an anti-HSA antibody: in the case of the strain deficient in yscB, the bands corresponding to degradation products were eliminated
